Patent publication US20230340151A1 (Pfizer, published 2023)
Where two headings read alike, the source gives them in different places.

Tests used:
[1] = biological target: T1, Murine GUCY2C-ECD cleaved (mouse, UniProt Q3UWA6 20-433); assay: SPR, GUCY2c directly immobilized, 25 C
T1 sequence: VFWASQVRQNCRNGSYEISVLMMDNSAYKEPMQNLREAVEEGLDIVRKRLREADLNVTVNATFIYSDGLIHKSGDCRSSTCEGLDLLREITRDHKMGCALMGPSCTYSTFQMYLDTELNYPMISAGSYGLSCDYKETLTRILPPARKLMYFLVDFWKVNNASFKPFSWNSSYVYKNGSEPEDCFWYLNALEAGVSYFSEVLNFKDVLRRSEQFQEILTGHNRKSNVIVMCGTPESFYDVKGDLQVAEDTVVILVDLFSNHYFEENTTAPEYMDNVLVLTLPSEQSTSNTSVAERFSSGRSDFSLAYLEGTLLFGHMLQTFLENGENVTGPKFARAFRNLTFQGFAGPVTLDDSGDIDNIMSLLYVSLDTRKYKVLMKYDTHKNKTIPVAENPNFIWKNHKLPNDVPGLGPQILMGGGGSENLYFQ

[2] = biological target: T2, Human CD3 epsilon-delta (human); assay: SPR, anti-human IgG capture, 25 C
T2 construct: Single-chain epsilon-linker-delta with His6; also called huCD3
T2 chain: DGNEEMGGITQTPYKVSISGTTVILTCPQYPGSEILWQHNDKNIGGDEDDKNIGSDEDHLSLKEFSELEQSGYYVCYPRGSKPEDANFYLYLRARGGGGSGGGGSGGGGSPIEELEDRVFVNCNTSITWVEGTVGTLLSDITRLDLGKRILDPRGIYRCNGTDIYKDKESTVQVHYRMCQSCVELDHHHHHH

[3] = biological target: T3, Human GUCY2C full length (SEQ ID NO: 224), recombinant protein (human, UniProt P25092 24-430, limits assumed); assay: SPR, GUCY2c directly immobilized, 25 C
T3 construct: also called huGUCY2C; biotinylated human GUCY2c

[4] = biological target: T1, Murine GUCY2C-ECD cleaved; assay: SPR, anti-human IgG capture, 25 C
[5] = biological target: T4, Cynomolgus CD3 epsilon-delta (cynomolgus); assay: SPR, printed anti-His capture, 25 C (Table 33D)
T4 chain: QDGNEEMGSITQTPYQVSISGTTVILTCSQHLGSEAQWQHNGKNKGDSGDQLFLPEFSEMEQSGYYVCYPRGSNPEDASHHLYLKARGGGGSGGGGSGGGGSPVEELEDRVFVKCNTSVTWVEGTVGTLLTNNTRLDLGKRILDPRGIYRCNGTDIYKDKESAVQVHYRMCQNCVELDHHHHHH

[6] = biological target: T5, Human GUCY2c on tumor cells (T84, HT55) (human, UniProt P25092 24-1073); assay: cell-based or functional assay
[7] = biological target: T6, Cynomolgus GUCY2C-ECD Cleaved (cynomolgus, UniProt P25092 24-430 (human entry)); assay: SPR, anti-human IgG capture, 25 C
T6 construct: also called CyGUCY2C
T6 chain: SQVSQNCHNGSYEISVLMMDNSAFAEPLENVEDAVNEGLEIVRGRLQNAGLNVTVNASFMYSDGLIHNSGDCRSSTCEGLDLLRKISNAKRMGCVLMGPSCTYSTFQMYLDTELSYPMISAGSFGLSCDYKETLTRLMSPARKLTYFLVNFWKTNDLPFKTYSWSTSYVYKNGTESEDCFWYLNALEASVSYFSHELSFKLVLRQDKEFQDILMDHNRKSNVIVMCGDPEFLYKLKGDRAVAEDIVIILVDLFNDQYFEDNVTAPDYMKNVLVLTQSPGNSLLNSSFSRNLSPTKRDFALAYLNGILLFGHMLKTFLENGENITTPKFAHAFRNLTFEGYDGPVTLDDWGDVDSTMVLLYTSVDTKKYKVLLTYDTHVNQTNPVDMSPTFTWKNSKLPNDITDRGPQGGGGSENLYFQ

[8] = biological target: T5, Human GUCY2c on tumor cells (T84, HT55); assay: cell-based or functional assay; remark: listed apart in the source
[9] = biological target: T3, Human GUCY2C full length (SEQ ID NO: …); assay: SPR, anti-human IgG capture, 25 C
[10] = biological target: T7, Human GUCY2C ECD-muIgG2a (human); assay: huCD3-huGUCY2C sandwich ELISA (CD3 coated)
T7 construct: also called human GUCY2c ECD-mouse IgG2a Fc fusion protein; huGUCY2c-mIgG2a

[11] = biological target: T8, Human CD3 on naive human T cells (human, UniProt P07766 23-207); assay: flow cytometry titration on naive human T cells (PE-A Geo Mean against Ab in nM)
T8 construct: whole, on cells; on cells it stands in the CD3/TCR complex

[12] = biological target: T5, Human GUCY2c on tumor cells (T84, HT55); assay: flow cytometry titration on T84 tumor cells (PE-A Geo Mean against Ab in nM)
[13] = biological target: T9, GUCY2C-1608; assay: competition DELFIA ELISA: peptide 19 in solution competes with the plate-bound full GUCY2c extracellular domain for GUCY2C-1608
T9 construct: also called GUCY2c CD3 bispecific

T3 sequence (P25092 24-430 F281L limits assumed): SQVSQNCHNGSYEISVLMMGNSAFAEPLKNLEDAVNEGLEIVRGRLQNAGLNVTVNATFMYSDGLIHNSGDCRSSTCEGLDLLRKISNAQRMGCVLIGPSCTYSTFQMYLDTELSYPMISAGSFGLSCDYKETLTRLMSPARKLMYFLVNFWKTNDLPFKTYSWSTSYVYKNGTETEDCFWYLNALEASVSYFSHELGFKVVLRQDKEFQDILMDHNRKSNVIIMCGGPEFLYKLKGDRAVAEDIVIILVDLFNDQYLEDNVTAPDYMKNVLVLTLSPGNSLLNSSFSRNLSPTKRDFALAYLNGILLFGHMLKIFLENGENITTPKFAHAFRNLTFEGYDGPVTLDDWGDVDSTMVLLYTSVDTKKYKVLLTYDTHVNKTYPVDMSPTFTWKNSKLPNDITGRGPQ
T5 sequence (P25092 24-1073 limits assumed): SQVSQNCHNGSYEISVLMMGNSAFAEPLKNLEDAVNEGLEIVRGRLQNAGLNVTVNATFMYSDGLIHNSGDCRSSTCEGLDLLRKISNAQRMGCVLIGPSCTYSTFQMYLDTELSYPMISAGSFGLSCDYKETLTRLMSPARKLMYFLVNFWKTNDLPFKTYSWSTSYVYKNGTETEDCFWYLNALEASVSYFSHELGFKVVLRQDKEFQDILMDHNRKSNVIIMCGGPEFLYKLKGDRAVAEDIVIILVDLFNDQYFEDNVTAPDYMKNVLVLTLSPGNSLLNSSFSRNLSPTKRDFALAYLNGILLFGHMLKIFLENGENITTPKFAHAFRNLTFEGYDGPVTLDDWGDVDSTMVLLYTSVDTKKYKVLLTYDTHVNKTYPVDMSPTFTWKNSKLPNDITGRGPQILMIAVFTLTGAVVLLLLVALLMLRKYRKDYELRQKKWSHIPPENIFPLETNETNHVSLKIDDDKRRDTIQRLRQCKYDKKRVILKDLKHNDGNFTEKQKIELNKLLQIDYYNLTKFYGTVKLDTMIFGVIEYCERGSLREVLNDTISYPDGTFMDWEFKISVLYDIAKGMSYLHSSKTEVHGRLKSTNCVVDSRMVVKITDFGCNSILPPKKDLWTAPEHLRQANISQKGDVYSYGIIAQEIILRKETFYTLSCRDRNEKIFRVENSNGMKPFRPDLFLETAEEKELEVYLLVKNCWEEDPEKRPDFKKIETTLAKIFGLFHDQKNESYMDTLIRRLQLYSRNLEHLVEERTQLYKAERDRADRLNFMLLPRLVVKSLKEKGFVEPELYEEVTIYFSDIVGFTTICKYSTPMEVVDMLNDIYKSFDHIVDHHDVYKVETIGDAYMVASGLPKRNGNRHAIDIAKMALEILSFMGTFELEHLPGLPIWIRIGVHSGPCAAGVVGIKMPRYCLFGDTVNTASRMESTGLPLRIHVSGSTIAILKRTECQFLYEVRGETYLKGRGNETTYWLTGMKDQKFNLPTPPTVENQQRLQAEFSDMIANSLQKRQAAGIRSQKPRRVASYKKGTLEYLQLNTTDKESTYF
T7 sequence (chain, as listed by the source limits assumed): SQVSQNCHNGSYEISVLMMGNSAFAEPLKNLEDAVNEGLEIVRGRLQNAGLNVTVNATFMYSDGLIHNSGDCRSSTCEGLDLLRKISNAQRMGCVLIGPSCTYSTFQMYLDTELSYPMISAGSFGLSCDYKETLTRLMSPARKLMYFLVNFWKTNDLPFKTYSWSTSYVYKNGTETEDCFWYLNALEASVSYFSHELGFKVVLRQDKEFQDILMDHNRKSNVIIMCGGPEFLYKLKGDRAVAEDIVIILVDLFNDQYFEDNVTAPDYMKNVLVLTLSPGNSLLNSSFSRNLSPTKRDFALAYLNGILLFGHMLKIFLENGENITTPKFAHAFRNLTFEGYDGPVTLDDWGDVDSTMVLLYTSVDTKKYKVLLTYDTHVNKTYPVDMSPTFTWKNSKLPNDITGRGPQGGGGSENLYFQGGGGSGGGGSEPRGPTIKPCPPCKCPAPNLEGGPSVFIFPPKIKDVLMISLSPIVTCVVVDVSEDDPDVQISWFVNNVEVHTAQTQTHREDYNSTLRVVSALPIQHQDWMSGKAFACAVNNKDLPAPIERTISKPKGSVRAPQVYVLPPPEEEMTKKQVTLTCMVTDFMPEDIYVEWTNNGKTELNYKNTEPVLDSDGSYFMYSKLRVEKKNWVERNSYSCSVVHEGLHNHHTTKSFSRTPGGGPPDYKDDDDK

Binder	Kd [1] [nM]	koff [1] [s⁻¹]	kon [1] [M⁻¹ s⁻¹]	Kd [2] [nM]	koff [2] [s⁻¹]	kon [2] [M⁻¹ s⁻¹]	Kd [3] [nM]	koff [3] [s⁻¹]	kon [3] [M⁻¹ s⁻¹]	Kd [5] [nM]	koff [5] [s⁻¹]	kon [5] [M⁻¹ s⁻¹]	T84 tumor cell EC50 (T cell cytotoxicity, E:T 5:1) [6] [nM]	Kd [7] [nM]	koff [7] [s⁻¹]	kon [7] [M⁻¹ s⁻¹]	T84 tumor cell EC50 (T cell cytotoxicity, E:T 5:1) [8] [nM]	Kd [9] [nM]	koff [9] [s⁻¹]	kon [9] [M⁻¹ s⁻¹]	also measured
GUCY2C-0240 (bispecific antibody) chain 1: DIQLTQSPSSLSASVGDRVTITCRASESVDNYGISFMNWFQQKPGKAPKLLIYAASNPGSGVPSRFSGSGSGTDFTLTISSLQPEDFATYYCQQSKEVPYTFGQGTKLEIKGGGSGGGGEVQLVESGGGLVQPGGSLRLSCAASGFTFSDYYMTWVRQAPGKGLEWVAFIRNRARGYTSDHNPSVKGRFTISRDNAKNSLYLQMNSLRAEDTAVYYCARDRPSYYVLDYWGQGTTVTVSSGCPPCPAPEAAGAPSVFLFPPKPKDTLMISRTPEVTCVVVDVSHEDPEVKFNWYVDGVEVHNAKTKPREEQYNSTYRVVSVLTVLHQDWLNGKEYKCKVSNKALPAPIEKTISKAKGQPREPQVCTLPPSREEMTKNQVSLWCLVKGFYPSDIAVEWESNGQPENNYKTTPPVLDSDGSFFLYSKLTVDKSRWQQGNVFSCSVMHEALHNHYTQKSLSLSPG chain 2: DIVMTQSPDSLAVSLGERATINCKSSQSLFNVRSRKNYLAWYQQKPGQPPKLLISWASTRESGVPDRFSGSGSGTDFTLTISSLQAEDVAVYYCKQSYDLFTFGSGTKLEIKGGGSGGGGEVQLVESGGGLVQPGGSLRLSCAASGYTFTTYWMQWVRQAPGKGLEWIGAIYPGDGMTTYTQKFKDRFTISADKAKNSAYLQMNSLRAEDTAVYYCVRKGMDYWGQGTLVTVSSGCPPCPAPEAAGAPSVFLFPPKPKDTLMISRTPEVTCVVVDVSHEDPEVKFNWYVDGVEVHNAKTKPREEQYNSTYRVVSVLTVLHQDWLNGKEYKCKVSNKALPAPIEKTISKAKGQPREPQVYTLPPCREEMTKNQVSLSCAVKGFYPSDIAVEWESNGQPENNYKTTPPVLDSDGSFFLVSKLTVDKSRWQQGNVFSCSVMHEALHNHYTQKSLSLSPG	42.3	0.00515	122000	3.73	0.00129	347000	37.9	0.00364	96200	4.71	0.00207	440000	0.53	91.2	0.00234	26100	0.53	37.9	0.00364	96200	Kd [4]: 317 nM; koff [4]: 0.00336 s⁻¹; kon [4]: 10600 M⁻¹ s⁻¹; EC50 [10]: 0.0799 nM
GUCY2C-0247 (bispecific antibody) chain 1: DIQLTQSPSSLSASVGDRVTITCRASESVDYYGTSLMQWYQQKPGKPPKLLIYAASNVESGVPSRFSGSGSGTDFTLTISSLQPEDFATYYCQQTRKVYTFGQGTKLEIKGGGSGGGGEVQLVESGGGLVQPGGSLRLSCAASGFTFSDYYMTWVRQAPGKGLEWVAFIRNRARGYTSDHNPSVKGRFTISRDNAKNSLYLQMNSLRAEDTAVYYCARDRPSYYVLDYWGQGTTVTVSSGCPPCPAPEAAGAPSVFLFPPKPKDTLMISRTPEVTCVVVDVSHEDPEVKFNWYVDGVEVHNAKTKPREEQYNSTYRVVSVLTVLHQDWLNGKEYKCKVSNKALPAPIEKTISKAKGQPREPQVCTLPPSREEMTKNQVSLWCLVKGFYPSDIAVEWESNGQPENNYKTTPPVLDSDGSFFLYSKLTVDKSRWQQGNVFSCSVMHEALHNHYTQKSLSLSPG chain 2: DIVMTQSPDSLAVSLGERATINCKSSQSLFNVRSRKNYLAWYQQKPGQPPKLLISWASTRESGVPDRFSGSGSGTDFTLTISSLQAEDVAVYYCKQSYDLFTFGSGTKLEIKGGGSGGGGEVQLVESGGGLVQPGGSLRLSCAASGYTFTSYWMHWVRQAPGKGLEWIGEIKPSNGLTNYIEKFKNRFTISVDKAKNSAYLQMNSLRAEDTAVYYCTRTITTTEGYWFFDVWGQGTLVTVSSGCPPCPAPEAAGAPSVFLFPPKPKDTLMISRTPEVTCVVVDVSHEDPEVKFNWYVDGVEVHNAKTKPREEQYNSTYRVVSVLTVLHQDWLNGKEYKCKVSNKALPAPIEKTISKAKGQPREPQVYTLPPCREEMTKNQVSLSCAVKGFYPSDIAVEWESNGQPENNYKTTPPVLDSDGSFFLVSKLTVDKSRWQQGNVFSCSVMHEALHNHYTQKSLSLSPG	12.2	0.00183	150000	3.34	0.000985	295000	3.01	0.000433	144000	3.61	0.001	280000	0.07	4.35	0.000369	85500	0.07	4.65	0.000457	98200	Kd [11]: 6.18 nM; EC50 [10]: 0.705 nM; Kd [12]: 1.32 nM
NSGDCRSSTCEGLDLLRKIS (also called GUCY2c peptide 19; GUCY2c-ECD peptide number 19) [GUCY2C_ECD Peptide 19]	–	–	–	–	–	–	–	–	–	–	–	–	–	–	–	–	–	–	–	–	IC50 (read off the curve) [13]: ~100 nM
